From US20260008815A1, “CYCLIC PEPTIDE OR SALT THEREOF, AND USES THEREOF” (FUJIFILM Corporation, priority 2023, published 2026)
Numbered stars: 1 amine (or outer) side, 2 acyl side, 3 side chain; on linkers, the order of the positions; unused ones are H or OH. Bridge positions count the residues as written; N and C are the ends. Ends that are not written are not given here. acetyl = acetyl (haloacetyl before ring closure) on the side-chain amine, O=C(C[*:1])[*:2]; COCH2 = acetyl group that carries the bridge

Biological target: T1, Recombinant Human FGFR2 alpha (IIIc) Fc Chimera Protein (Homo sapiens, UniProt P21802)
T1 construct: Fc (chimera); purchased R&D systems 712-FR-050
Test: ELISA binding affinity of enzymatically synthesized peptide to FGFR
Settings: ELISA luminescence signal at 10 nmol/L peptide, SEQ ID NO: 47 at 10 nmol/L standardized to 1; enzyme synthesis product
In short: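 FGFR2 alpha (IIIc) Fc chimera (5 ng/well) was immobilized, and Myc-tagged peptide was bound 3 h at room temperature, then detected with anti-Myc antibody (2 h) and chemiluminescent substrate. Signal was corrected against FGFR-free wells. Score A–D was the luminescence at 10 nmol/L peptide, normalized to cyclic peptide SEQ ID NO: 47.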

T1 sequence (P21802 with tags, fused parts or gaps limits assumed): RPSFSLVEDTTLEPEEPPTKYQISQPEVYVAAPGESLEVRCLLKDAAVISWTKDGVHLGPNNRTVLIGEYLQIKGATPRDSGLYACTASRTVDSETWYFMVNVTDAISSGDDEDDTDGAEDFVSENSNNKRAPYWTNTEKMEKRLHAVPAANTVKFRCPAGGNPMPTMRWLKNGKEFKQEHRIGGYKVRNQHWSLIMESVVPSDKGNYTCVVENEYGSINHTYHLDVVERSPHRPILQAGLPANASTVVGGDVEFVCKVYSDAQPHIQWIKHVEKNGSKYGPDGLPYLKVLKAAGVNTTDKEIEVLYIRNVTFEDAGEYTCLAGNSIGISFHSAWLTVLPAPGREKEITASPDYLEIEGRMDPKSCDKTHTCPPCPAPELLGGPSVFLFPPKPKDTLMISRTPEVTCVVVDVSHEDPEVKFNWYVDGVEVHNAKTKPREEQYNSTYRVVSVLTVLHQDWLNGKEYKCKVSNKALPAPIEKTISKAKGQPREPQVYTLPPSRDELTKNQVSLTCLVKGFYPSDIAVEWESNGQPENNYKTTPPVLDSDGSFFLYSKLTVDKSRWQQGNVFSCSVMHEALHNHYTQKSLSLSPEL

Substance | Evaluation result of binding affinity to FGFR
221 (YCEENYLDGEQYQYFIYFK(COCH2)Y; thioether 2-19 (inferred)) [compound 221] | A (0.7 or more)
298 (YCEENYLDPEQYQYFINFK(COCH2)Y; thioether 2-19) [compound 298] | A (0.7 or more)
282 (YCEENYLDPEQYQYFWYFK(COCH2)Y; thioether 2-19) [compound 282] | A (0.7 or more)
264 (YCEENYLDPEQYNYFIYFK(COCH2)Y; thioether 2-19) [compound 264] | A (0.7 or more)
213 (YCEENYLWPEQYQYFIYFK(COCH2)Y; thioether 2-19 (inferred)) [compound 213] | B (0.5 or more and less than 0.7)
247 (YCEENYLDPTQYQYFIYFK(COCH2)Y; thioether 2-19 (inferred)) [compound 247] | A (0.7 or more)
276 (YCEENYLDPEQYQYYIYFK(COCH2)Y; thioether 2-19) [compound 276] | B (0.5 or more and less than 0.7)
226 (YCEENYLDYEQYQYFIYFK(COCH2)Y; thioether 2-19 (inferred)) [compound 226] | A (0.7 or more)
263 (YCEENYLDPEQYWYFIYFK(COCH2)Y; thioether 2-19) [compound 263] | A (0.7 or more)
191 (YCEENSLDPEQYQYFIYFK(COCH2)Y; thioether 2-19 (inferred)) [compound 191] | C (0.1 or more and less than 0.5)
146 (TCEENYLDPEQYQYFIYFKY; Description of Artificial Sequence: Cyclic peptide) [compound 146] | A (0.7 or more)
68 (KCQNFINPVQWRYFQHYK(COCH2)N; thioether 2-18 (inferred)) [compound 68] | A (0.7 or more)
50 (ACGQNFYHPVQFHYFIAYKQ; Description of Artificial Sequence: Cyclic peptide) [compound 50] | A (0.7 or more)
168 (YCELNYLDPEQYQYFIYFK(COCH2)Y; thioether 2-19 (inferred)) [compound 168] | A (0.7 or more)
74 (ICPQNFINPVQWRYFQHYK(COCH2)N; thioether 2-19 (inferred)) [compound 74] | A (0.7 or more)
147 (DCEENYLDPEQYQYFIYFKY; Description of Artificial Sequence: Cyclic peptide) [compound 147] | A (0.7 or more)
296 (YCEENYLDPEQYQYFIFFK(COCH2)Y; thioether 2-19) [compound 296] | A (0.7 or more)
64 (KCPQNFINPVQWRAFQHYK(COCH2)N; thioether 2-19 (inferred)) [compound 64] | B (0.5 or more and less than 0.7)

Substance | Evaluation result of binding affinity to FGFR
57 (KCPQNAINPVQWRYFQHYK(COCH2)N; thioether 2-19 (inferred)) [compound 57] | B (0.5 or more and less than 0.7)
155 (YCVENYLDPEQYQYFIYFK(COCH2)Y; thioether 2-19 (inferred)) [compound 155] | A (0.7 or more)
253 (YCEENYLDPEQIQYFIYFK(COCH2)Y; thioether 2-19 (inferred)) [compound 253] | C (0.1 or more and less than 0.5)
92 (QCPQNFINPVQWRYFQHFK(COCH2)N; thioether 2-19 (inferred)) [compound 92] | A (0.7 or more)
280 (YCEENYLDPEQYQYFFYFK(COCH2)Y; thioether 2-19) [compound 280] | A (0.7 or more)
35 (YRSRKYSSWYVALKR; also: cyclic peptide, ring not given here) [compound 35] | D (less than 0.1)
145 (SCEENYLDPEQYQYFIYFKY; Description of Artificial Sequence: Cyclic peptide) [compound 145] | A (0.7 or more)
91 (QCPQNFINPVQWRYFQHVK(COCH2)N; thioether 2-19 (inferred)) [compound 91] | C (0.1 or more and less than 0.5)
94 (QCPQNFINPVQWRYFQHSK(COCH2)N; thioether 2-19 (inferred)) [compound 94] | C (0.1 or more and less than 0.5)
262 (YCEENYLDPEQYYYFIYFK(COCH2)Y; thioether 2-19) [compound 262] | A (0.7 or more)
184 (YCEESYLDPEQYQYFIYFK(COCH2)Y; thioether 2-19 (inferred)) [compound 184] | C (0.1 or more and less than 0.5)
273 (YCEENYLDPEQYQNFIYFK(COCH2)Y; thioether 2-19) [compound 273] | C (0.1 or more and less than 0.5)
209 (YCEENYLIPEQYQYFIYFK(COCH2)Y; thioether 2-19 (inferred)) [compound 209] | C (0.1 or more and less than 0.5)
43 (HCNANFVYQQQYLYLLQYK(COCH2)L; thioether 2-19 via acetyl) [compound 43] | B (0.5 or more and less than 0.7)
99 (QCPQEFINPVQWRYFQHYK(COCH2)N; thioether 2-19) [compound 99] | C (0.1 or more and less than 0.5)
104 (QCPQNFINPVQYRYFQHYK(COCH2)N; thioether 2-19 (inferred)) [compound 104] | B (0.5 or more and less than 0.7)
199 (YCEENYWDPEQYQYFIYFK(COCH2)Y; thioether 2-19 (inferred)) [compound 199] | A (0.7 or more)

Now from value to substance:

Evaluation result of binding affinity to FGFR | Substance
C (0.1 or more and less than 0.5) | 383 (QCQLYYLYQYAYALK(COCH2)V; thioether 2-15 (inferred)) [compound 383]
A (0.7 or more) | 339 (YCEENYKDPEQYQYFIYFK(COCH2)Y; thioether 2-19 (inferred)) [compound 339]
B (0.5 or more and less than 0.7) | 394 (YCHENYLDPEQYQYFHYFK(COCH2)R; thioether 2-19 (inferred)) [compound 394]
A (0.7 or more) | 336 (YCKENYLDPEQYQYFIYFK(COCH2)Y; thioether 2-19 (inferred)) [compound 336]
A (0.7 or more) | 307 (YCEENYLDPEQYQYFIYWK(COCH2)Y; thioether 2-19 (inferred)) [compound 307]
A (0.7 or more) | 306 (YCEENYLDPEQYQYFIYYK(COCH2)Y; thioether 2-19 (inferred)) [compound 306]
C (0.1 or more and less than 0.5) | 399 (QK(COCH2)PQNFINPVQWRYFQHYCN; thioether 2-19 (inferred)) [compound 399]
A (0.7 or more) | 312 (YCEENYLDPEQYQYFIYFK(COCH2)F; thioether 2-19 (inferred)) [compound 312]
C (0.1 or more and less than 0.5) | 418 (DCLRQQVYQYLYILFQNDIAK(COCH2)D; thioether 2-21 via acetyl) [compound 418]
A (0.7 or more) | 430 (CHENYLDPEQYQYFHYFK(COCH2)Y; thioether 1-18 via acetyl) [compound 430]
A (0.7 or more) | 348 (YCMENYLDPEQYQYFIYFK(COCH2)Y; thioether 2-19) [compound 348]
C (0.1 or more and less than 0.5) | 373 (QCYNYQYIYQYIYK(COCH2)I; thioether 2-14) [compound 373]
B (0.5 or more and less than 0.7) | 407 (LCVQGNYQNPTQWYYFQLYK(COCH2)W; thioether 2-20 (inferred)) [compound 407]
C (0.1 or more and less than 0.5) | 417 (LCQIYLYLTALQQGFEDFYPK(COCH2)N; thioether 2-21 via acetyl) [compound 417]
A (0.7 or more) | 360 (YCEENYLDPEQYQYFIYFK(COCH2)M; thioether 2-19) [compound 360]
A (0.7 or more) | 410 (WCQESSNYLAPLQWYFFNWYK(COCH2)T; thioether 2-21 (inferred)) [compound 410]
C (0.1 or more and less than 0.5) | 424 (VCTQPQQDFELIYQYLYQLAK(COCH2)Q; thioether 2-21 via acetyl) [compound 424]
C (0.1 or more and less than 0.5) | 374 (QCLQDLYRYLYLLK(COCH2)A; thioether 2-14) [compound 374]
C (0.1 or more and less than 0.5) | 326 (YCEENALDPEQYQYFIYFK(COCH2)Y; thioether 2-19 (inferred)) [compound 326]
A (0.7 or more) | 349 (YCEMNYLDPEQYQYFIYFK(COCH2)Y; thioether 2-19) [compound 349]
A (0.7 or more) | 353 (YCEENYLDMEQYQYFIYFK(COCH2)Y; thioether 2-19) [compound 353]
A (0.7 or more) | 395 (YCHENYLDPEQYQYFHYFK(COCH2)H; thioether 2-19 (inferred)) [compound 395]
C (0.1 or more and less than 0.5) | 367 (HCQLEYLYTYVLK(COCH2)I; thioether 2-13) [compound 367]
